Laboratory results taken from patent US20090060919A1 (AstraZeneca / MedImmune, published 2009).
Residue numbers refer to the chain shown, from its start. Where two headings read alike, the source gives them in different places.

B1: Antibody 8 IgG (antibody, V domains shown)
VH: QVQLVQSGAEVKKPGATVKLSCKVYGYIFTDYNIYWVRQAPGKGLEWMGLIDPDNGETFYAEKFQGRATMTADTSSDRAYMELTSLTFEDTATYYCATVLGRWIKGGYDYWGRGTLVTVSS
VL: QSVLTQPPSVSGAPGQRVTISCTGSSSNIGAGYDVHWYQQLPGTAPKLLIYDNFNRPSGVPDRFSGSKSGTSASLAIIGLQTEDEADYYCQSYDSPTHTSPFGTGTKLTVL
notes: Whole human IgG (section 1.4: IgG1)
B2: Antibody 8 GL IgG (antibody, V domains shown)
VH: B1 VH with Q1E, L20I, T84S, T87R, T93V
VL: B1 VL with I78T, T82A
notes: Germlined IgG
B3: Antibody 11 GL IgG (antibody, V domains shown)
VH: B1 VH with Q1E, L20I, T84S, T87R, T93V, L100M, R102K
VL: B1 VL with I78T, T82A, H98L
notes: Germlined IgG
B4: Antibody 1 IgG (antibody, V domains shown)
VH: B1 VH with G101H, W103R, I104L
VL: B1 VL with P96S, T97L, H98S, T99G, P101L
notes: IgG1 or IgG2 vectors named; also called parent antibody
B5: Antibody 11 IgG (antibody, V domains shown)
VH: B1 VH with L100M, R102K
VL: B1 VL with H98L
notes: as for B1

Columns and labels:
[1] = biological target: T1, human IgEλ (U266 derived) (human, UniProt P01854-1 1-428); assay: cell-based or functional assay
[2] = biological target: T1, human IgEλ (U266 derived); assay: flow cytometry: inhibition of IgE binding to CD23 on IM9 cells
Experimental: Antibodies were evaluated for inhibition of the IgE/CD23 interaction. […] In brief, titrations of the test IgG were mixed with IgE prior to incubation with 1M9 cells.
Assay plates were incubated on ice for 20 minutes in the dark before centrifuging at 2000 rpm for 2 minutes and washing with 2×200 uL of Flow buffer as described above. Cells were resuspended in 100 uL Cell Fix (BD biosciences) and analysed using a FACSCalibur (BD Biosciences) to detect FL2 staining.

[3] = biological target: T1, human IgEλ (U266 derived); assay: SPR (BIAcore 2000): IgG captured on protein G', IgE as analyte, bivalent analyte model; geomean
Experimental: (§1) In brief, Protein G′ (Sigma Aldrich, P4689) was covalently coupled to the surface of a CM5 sensor chip using standard amine coupling reagents according to manufacturer's instructions (BIAcore). […] The resulting sensorgrams were evaluated using BIA evaluation 3.1 software and fitted to a bivalent analyte model, to provide relative binding data.

[4] = biological target: T1, human IgEλ (U266 derived); assay: cell-based or functional assay; remark: listed apart in the source
[5] = biological target: T1, human IgEλ (U266 derived); assay: SPR (BIAcore 2000): IgG captured on protein G', IgE as analyte, bivalent analyte model; geomean; remark: listed apart in the source
Experimental: as §1

human IgE [6] = biological target: T2, human IgE (human, UniProt P01854-1 1-428); assay: KinExA
T2 construct: lead-isolation RBL-ER51 assays: Calbiochem or U266-derived; also called IgE (Calbiochem or U266-derived); purified human IgE

human IgE [7] = biological target: T2, human IgE; assay: cell-based or functional assay
IgE in human serum = biological target: T3, IgE in human serum (human, UniProt P01854-1 1-428); assay: ELISA: free serum IgE captured on coated FcERI-Fc-His after mixing serum with antibody; representative experiment
T3 construct: also called IgE in serum; free IgE
T3 sequence (P01854 other isoform, or with tags, fused parts or gaps): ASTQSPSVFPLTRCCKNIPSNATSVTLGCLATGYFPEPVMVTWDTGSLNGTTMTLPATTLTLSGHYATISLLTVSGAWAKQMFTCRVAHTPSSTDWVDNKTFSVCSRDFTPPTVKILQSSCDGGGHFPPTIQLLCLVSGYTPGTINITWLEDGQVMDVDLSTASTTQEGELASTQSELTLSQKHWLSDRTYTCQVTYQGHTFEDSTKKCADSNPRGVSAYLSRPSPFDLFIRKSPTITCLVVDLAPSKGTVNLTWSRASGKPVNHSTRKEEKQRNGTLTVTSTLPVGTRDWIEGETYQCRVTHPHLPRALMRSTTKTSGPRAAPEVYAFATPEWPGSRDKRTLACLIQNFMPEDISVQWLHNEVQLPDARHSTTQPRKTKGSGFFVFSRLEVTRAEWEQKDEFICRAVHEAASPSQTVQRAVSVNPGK
Experimental: Serum samples were prepared from blood samples from human donors. […] To reduce background binding, plates were subsequently incubated with 200 μl/well of block buffer consisting of PBS containing 0.5% BSA, incubated at room temperature for 2 hours, and washed three times with PBST as described above. […] The plates were sealed and samples incubated at room temperature for 2 hours. To remove unbound sample, plates were washed three times with PBST as described. […] The plates were then sealed again, and incubated for 1 hour at room temperature. […] The conjugate was diluted 1:25000 in PBST, 150 μl added per well, the plates sealed, and incubated for 1 hour at room temperature. The plates were then washed three times with PBST as described. TMB-substrate solution (DAKO Substrate-Chromogen, No. S1599), 150 μl/well, was then added to each well and the plates incubated for 10 minutes at room temperature.

T2 sequence (P01854 other isoform, or with tags, fused parts or gaps): as above
T1 sequence (P01854 other isoform, or with tags, fused parts or gaps): as above

Binder	RBL-ER51 calcium signalling IC50 (Geomean), Human IgE [1]	IC50 [2]	Kd [3]	RBL-ER51 calcium signalling IC50 (Geomean), Human IgE [4]	Kd [5]	other results
B1	0.112 nM	16.5 nM	2.6 nM	–	–	–
B2	–	–	–	0.085 nM	2.5 nM	–
B3	–	–	–	0.084 nM	1.5 nM	–
B4	–	16 nM	–	–	–	–
B5	0.069 nM	23 nM	1.6 nM	–	–	Kd (human IgE [6]): 0.0063 nM; induction of IgE positive human B cells (intracellular IgE, flow cytometry), IC50 (human IgE [7]): 1.6 nM; β-hexosaminidase release of LAD2 mast cells, IC50 (human IgE [7]): 0.04 nM; IC50 (IgE in human serum): 0.202 nM
